Measured values taken from paper PMC6499331, “Transcriptional gene silencing requires dedicated interaction between HP1 protein Chp2 and chromatin remodeler Mit1” (Genes & Development, 2019).
Changes are numbered by the printed parent chain. Values belong to the binder of their own block, whether it stands above or below them.

Experiments:
[1] = molecular target: T1, StrepSumo-tagged Mit1CII wild type (S. pombe, UniProt Q9P793 1-81); assay: ITC; 25°C; 400 mM NaCl, 50 mM Tris-HCl pH 7.5, 5 mM β-mercaptoethanol; Chp2 or Swi6 at 100 to 500 µM injected into the cell holding StrepSumo-tagged Mit1 constructs at 5 to 50 µM; VP-ITC or Nano ITC (Mit1CIIΔCDL); conditions: both partners purified
T1 construct: The Strep-SUMO tag was left on for stabilization; also called wild-type Mit1CII; source: E. coli BL21(DE3) or Rosetta (DE3), purified (Streptactin, SEC); not shown: Strep-SUMO, N-terminal, kept
T1 sequence (looked up): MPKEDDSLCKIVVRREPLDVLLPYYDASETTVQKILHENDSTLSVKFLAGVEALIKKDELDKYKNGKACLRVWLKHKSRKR

[2] = molecular target: T2, StrepSumo-tagged Mit1CII with engineered PkVvL motif instead of CkIvV (S. pombe, UniProt Q9P793 1-81, PkVvL motif instead of CkIvV); assay: as above; conditions: both partners purified
T2 construct: Mit1, S. pombe, CII, residues 1-81; residues 9-13 CKIVV changed to PKVVL; also called Mit1 PxVxL substitution mutant; PxVxL substitution; source: E. coli BL21(DE3) or Rosetta (DE3), purified (Streptactin, SEC); not shown: Strep-SUMO, N-terminal, kept
T2 sequence (looked up): T1 sequence (looked up) with C9P, I11V, V13L

[3] = molecular target: StrepSumo-tagged Mit1CIIΔCDL (S. pombe); assay: as above
[4] = molecular target: T3, StrepSumo-tagged Mit1CII I11R (S. pombe, UniProt Q9P793 1-81, I11R); assay: as above; conditions: both partners purified
T3 construct: Mit1, S. pombe, CII, residues 1-81, I11R; also called Mit1I11R; Mit1 I11R; source: E. coli BL21(DE3) or Rosetta (DE3), purified (Streptactin, SEC); not shown: Strep-SUMO, N-terminal, kept
T3 sequence (looked up): T1 sequence (looked up) with I11R

[5] = molecular target: the molecule itself; assay: crystal structure; Mit1(1-81)–Chp2(316-380), coexpressed in E. coli, purified as a complex; hanging drops at 18°C, 2.4 M sodium malonate pH 7, 3% 1,6-hexanediol; 1.6 Å
[6] = molecular target: T4, Mit1(1-81), Chp2 interaction interface (CII), tag removed (S. pombe, UniProt Q9P793 1-81); assay: as above; conditions: both partners purified
T4 construct: Mit1, S. pombe, residues 1-81 (CkIvV motif 9-13, linker 15-31, CD-like domain); Density is seen for residues 8-81; also called Mit1CII; source: E. coli BL21(DE3) or Rosetta (DE3), coexpressed with Chp2CSD, purified as a complex (Streptactin, Ulp1, SEC); not shown: Strep-SUMO, N-terminal, cleaved
T4 sequence (looked up): T1 sequence (looked up)

Kd [1]: 28 µM
Kd [2]: 15 µM
B1: Swi6CSD (domain or fragment, S. pombe, UniProt P40381 267-328, looked up)
chain: DSWEDLVSSIDTIERKDDGTLEIYLTWKNGAISHHPSTITNKKCPQKMLQFYESHLTFRENE
notes: Swi6, HP1 protein, S. pombe, chromoshadow domain (CSD); A crystal structure of the free Swi6CSD dimer (PDB 1E0B) is cited; also called Swi6 chromoshadow domain; source: E. coli BL21(DE3) or Rosetta (DE3), purified (Streptactin, on-column Ulp1 cleavage, SEC); not shown: Strep-SUMO, N-terminal, cleaved

Kd [3]: 2200 nM
Kd [4]: 21.5 µM
Kd [1]: 0.0026 µM
Kd [2]: 0.0082 µM
B2: Chp2CSD (expressed alone, tag removed, for ITC) (domain or fragment, S. pombe)
chain: KPPFQKKSWEDLVDCVKTVQQLDNGKLIAKIKWKNGYVSTHDNIIIHQKCPLKIIEYYEAHIKFT
notes: Chp2, S. pombe, chromoshadow domain (CSD); limits 316-380 are printed for the crystallised CSD construct, not for the ITC sample; source: E. coli BL21(DE3) or Rosetta (DE3), purified (Streptactin, Ulp1, MonoS); not shown: Strep-SUMO, N-terminal, cleaved

stoichiometry N [6]: 2 Chp2CSD chains per Mit1
B3: Chp2CSD, Chp2(316-380), untagged, coexpressed with Mit1 fragments (domain or fragment, S. pombe, UniProt O42934 316-380, looked up)
chain: B2 chain
notes: Chp2, S. pombe, chromoshadow domain, residues 316-380; Cloned without tag into pACE2 for coexpression; Limits 316-380 are printed for the crystallised complex; also called chromo shadow domain of Chp2; Chp2CSD2; source: E. coli BL21(DE3) or Rosetta (DE3), coexpressed with Mit1 fragments, purified as a complex
stoichiometry N [5]: 2
